From patent US20210155689A1 (SHANGHAI PHARMAEXPLORER, published 2021)
Residue numbers refer to the chain shown, from its start.

T1: LAG-3-hFc protein (human LAG-3 extracellular region with hFc tag) (human, UniProt P18627 23-450)
T1 construct: also called hLAG-3-hFc; LAG-3 protein; not shown: human IgG Fc fragment (hFc) of the pCpC vector
T1 sequence: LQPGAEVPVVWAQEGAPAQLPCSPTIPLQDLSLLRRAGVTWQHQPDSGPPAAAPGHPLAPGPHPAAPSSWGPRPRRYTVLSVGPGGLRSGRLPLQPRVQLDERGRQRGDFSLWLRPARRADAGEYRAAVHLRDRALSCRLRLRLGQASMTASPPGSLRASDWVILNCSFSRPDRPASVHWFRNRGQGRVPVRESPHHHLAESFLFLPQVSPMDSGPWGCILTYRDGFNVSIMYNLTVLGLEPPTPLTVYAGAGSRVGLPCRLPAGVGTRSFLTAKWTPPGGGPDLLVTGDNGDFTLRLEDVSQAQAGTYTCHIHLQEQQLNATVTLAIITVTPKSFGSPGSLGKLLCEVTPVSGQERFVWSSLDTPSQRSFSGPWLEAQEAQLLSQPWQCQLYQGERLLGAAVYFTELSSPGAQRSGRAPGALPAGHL

T2: human LAG-3 protein with hFc tag (hLAG-3-hFc protein) (human, UniProt P18627 23-450)
T2 construct: also called immunogen 1; LAG-3 extracellular domain protein; not shown: human IgG Fc fragment (hFc) of the pCpC vector
T2 sequence: T1 sequence

T3: human LAG-3 on cells (HEK293-hLAG-3 stable cell line) (human, UniProt P18627 23-525)
T3 sequence: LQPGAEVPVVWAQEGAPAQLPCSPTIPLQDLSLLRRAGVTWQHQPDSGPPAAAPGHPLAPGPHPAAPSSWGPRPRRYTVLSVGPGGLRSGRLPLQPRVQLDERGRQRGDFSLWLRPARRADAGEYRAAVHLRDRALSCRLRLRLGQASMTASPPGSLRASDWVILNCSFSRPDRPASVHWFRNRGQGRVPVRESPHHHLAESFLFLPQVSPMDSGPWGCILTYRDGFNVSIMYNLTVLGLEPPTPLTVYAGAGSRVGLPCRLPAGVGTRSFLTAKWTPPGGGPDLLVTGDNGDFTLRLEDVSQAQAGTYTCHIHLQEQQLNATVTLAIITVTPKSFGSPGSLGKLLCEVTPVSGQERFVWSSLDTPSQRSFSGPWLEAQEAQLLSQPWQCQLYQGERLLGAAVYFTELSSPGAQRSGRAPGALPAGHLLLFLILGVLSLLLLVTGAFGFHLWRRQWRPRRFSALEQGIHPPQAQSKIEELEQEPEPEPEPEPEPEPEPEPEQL

B1: 556F6B8 mouse-human chimeric antibody (antibody, V domains shown)
VH: RVQLKQSGPGLVQPSQSLSITCTVSGFSLIKYGVHWVRQSPGEGLEWLGVIWRGGITDYNAAFMSRLSITKDNSKSQVFFKMNSLQADDTAIYYCAKWDGPLAMDYWGQGTSVTVSS
VL: DIVMTQSHKFLSTSVGDRVSITCKASQDVGTTVAWYQQKPGQSPKLLIYWASTRHTGVPDRFTGSGSGTDFTLTISNVQSEDLADYFCQQYSSYPYTFGGGTKLEIK
notes: also called mAb123-556F6B8; 556F8B8
B2: 105F1E10 mouse-human chimeric antibody (antibody, V domains shown)
VH: EVQLQQSGPELVKPGASVKMSCRASGYTFTDFKMHWMKQSHGKSLEWIGYIAPNNGGTAYNQKFRGKATLTVNESSNTAYMELRSLTSEDSAVYYCVDWDDVDYWGQGTTLTVSS
VL: DIKMTQSPSSMYASLGERVTITCKASQDINSYLSWFQQKSGKSPKTLIYRANRLVDGVPSRFSGSGSGQDYSLTISSLEYEDMGIYYCLQYVEFPLTFGAGTKLELK
notes: also called mAb009-105F1E10
B3: 405B8H3 mouse-human chimeric antibody (antibody, V domains shown)
VH: QVQLQQSGAELVRPGASVTLSCKASGYTFTDYEMHWVKQTPVHGLEWIGATDPETGNSAYNQKFKGKAIMTADKSSSTAYMELRSLTSEDSAVYYCISTGWNDWGQGTSLTVSS
VL: B2 VL with S40P, N52D, V55L, E81G, V92D, L96Y, A100G, L106I
notes: also called mAb103-405B8H3
B4: 409B11E12 mouse-human chimeric antibody (antibody, V domains shown)
VH: B3 VH with P41T, G56S, N57Y, M70L, S98A
VL: B2 VL with I2L, S40P, V55L, V92D, L96Y, A100G, L106I
notes: also called mAb104-409B11E12
B5: 409D4E10 mouse-human chimeric antibody (antibody, V domains shown)
VH: B3 VH with Y27N, G56D, S58T, M70L, A72T, S98T, T99S
VL: B2 VL with S40P, V55L, V92N, L96Y, A100G, L106I
notes: also called mAb112-409D4E10
B6: 105F1E10 (LAG-3 mouse-human chimeric antibody) (antibody, V domains shown)
VH: B2 VH
VL: B2 VL
B7: 405B8H3 (LAG-3 mouse-human chimeric antibody) (antibody, V domains shown)
VH: B3 VH
VL: B2 VL with S40P, N52D, V55L, E81G, V92D, L96Y, A100G, L106I
notes: also called mouse-human chimeric antibody 405B8H3
B8: 409B11E12 (LAG-3 mouse-human chimeric antibody) (antibody, V domains shown)
VH: B3 VH with P41T, G56S, N57Y, M70L, S98A
VL: B2 VL with I2L, S40P, V55L, V92D, L96Y, A100G, L106I
B9: 409D4E10 (LAG-3 mouse-human chimeric antibody) (antibody, V domains shown)
VH: B3 VH with Y27N, G56D, S58T, M70L, A72T, S98T, T99S
VL: B2 VL with S40P, V55L, V92N, L96Y, A100G, L106I
B10: 556F6B8 (LAG-3 mouse-human chimeric antibody) (antibody, V domains shown)
VH: B1 VH
VL: B1 VL
notes: also called 556F8B8

Target: T1, LAG-3-hFc protein (human LAG-3 …)
Assay: FACS, inhibition of LAG-3-hFc binding to MHC II on Raji cells, antibody 22.222 nM
Experimental: The FACS reaction plate incubating the Raji cells was centrifuged to discard the supernatant. The above mixture was added as 100 μl per well to Raji cells and incubated on ice for 1-2 hours. The plate was washed twice with blocking solution (PBS, 2% fetal bovine serum) by centrifugation, added with 100 microliters of fluorescent (Alexa 488)-labeled secondary antibodies per well, and incubated on ice for 1.0 hours. The plate was washed 2-3 times by centrifugation with blocking solution (PBS, 2% fetal bovine serum), added with 100 microliters of PBS per well to suspend cells, and detected using FACS (FACS Calibur, BD) and the results were analyzed. Wherein, the IgG control was murine IgG, and the data in the table is the inhibition rate (%).

| Binder | Inhibition rate (%) |
| --- | --- |
| B1 | 95.8% |
| B2 | 95.8% |
| B3 | 95.7% |
| B4 | 95.6% |
| B5 | 95.7% |

Target: T2, human LAG-3 protein with hFc tag …
Assay: ELISA, hLAG-3-hFc coated; 0.6667 nM
Experimental: The plate was sealed with plastic film and incubated overnight at 4° C. The plate was washed 2 times with the plate washing solution (PBS+0.01% Tween20) on the next day, and added with the blocking solution (PBS+0.01% Tween20+1% BSA) and blocked at room temperature for 1-2 hours. The blocking solution was poured out, and the plate was added with 50-100 μl of the antibody sample to be tested to each well, incubated at 37° C. for 1-2 hours, and washed 2-3 times with a plate washing solution (PBS+0.01% Tween20). HRP (horseradish peroxidase) labeled secondary antibody was added, and the plate was incubated at 37° C. for 1-2 hours, and washed 2-3 times with a plate washing solution (PBS+0.01% Tween20). 100 μl of TMB substrate was added to each well. After incubated at room temperature for 15-30 minutes, the plate was added with 100 μl of stop solution (1.0N HCl) to each well.

| Binder | OD450 |
| --- | --- |
| B6 | 3.46 OD450 |
| B7 | 3.51 OD450 |
| B8 | 3.55 OD450 |
| B9 | 3.76 OD450 |
| B10 | 3.76 OD450 |

Target: T3, human LAG-3 on cells (HEK293-hLAG-3 …)
Assay: FACS, HEK293-hLAG-3, antibody 0.064 nM
Description: The pIRES plasmid with the monkey-derived full-length gene was transfected into the HEK293 cell line to construct a HEK293 stable cell line containing monkey LAG-3 (herein referred to as HEK293-cLAG-3 stable cell line). The HEK293-hLAG-3 stable cell line and HEK293-cLAG-3 stable cell line were expanded in a T-75 cell culture flask to a 90% confluence. The medium was aspirated, and the cells were washed with HBSS (Hanks' Balanced Salt Solution) 1-2 times, then treated with a enzyme-free cell dissociation fluid (Versene solution: Life technology) and the cells were collected. The cells were washed with HBSS buffer for 1-2 times. After counted, the cells were diluted with HBSS to 1-2×10⁶ cells per ml, added with 1% goat serum blocking solution, incubated on ice for 20-30 minutes, and then washed with HBSS for 2 times by centrifugation. The collected cells were suspended in the FACS buffer (HBSS+1% BSA) to 2×10⁶ cells/ml, added as 100 microliters per well to a 96-well FACS reaction plate, added with 100 microliters per well of the antibody sample to be tested, incubated on ice for 1-2 hours. The plate was washed twice with the FACS buffer by centrifugation, added with 100 microliters of fluorescent (Alexa 488)-labeled secondary antibodies per well, and incubated on ice for 0.5-1.0 hours. The plate was washed 2-3 times with FACS buffer by centrifugation, added with 100 μl fixative solution (4% Paraformaldehyde) per well to suspend the cells. 5-10 minutes later, it was washed 1-2 times with FACS buffer by centrifugation. The cells were suspended with 100 microliters of FACS buffer, FACS (FACSCalibur, BD) was used for detection and the results were analyzed.

| Binder | Mean fluorescence intensity |
| --- | --- |
| B1 | 6.5 |
| B2 | 5.1 |
| B3 | 6.3 |
| B4 | 6.3 |
| B5 | 6.3 |
